# Assay results taken from the supplement of paper PMC9170038.
# Tested on: K4 kissing-loop RNA reporter
# Assay: apparent KD of K4 kissing-loop reporter; higher = weaker reporter binding
# Conditions: Eterna round: R107
# Description: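 RNA-MaP round R107: designed RNA switches with theophylline, tryptophan, arginine or FMN aptamers are transcribed on-chip within common flanks. They are titrated with a labelled K4 kissing-loop RNA reporter in RNA-MaP buffer (100 mM Tris pH 7.5, 80 mM KCl, 4 mM MgCl2), without ligand or with the indicated ligand. Median apparent KD per design.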
# [1] = input ligand: theophylline 20 uM
# [2] = input ligand: tryptophan 2.4 mM
# 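Further: bound reporter read as fluorescence of individual clusters on recovered sequencing chips by microscopy, with normalized cluster intensities fitted with a binding model.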
sequence,measurement,setting,value
GGCAUGGUGGCAGGAUAUCCUAAUAGAGUGAUGUUCUAGCCCUCGUAGGCGAAAGCCUACGAGGGCGGAGAAGGGCCACCAUGCC,apparent KD of K4 kissing-loop reporter,input ligand: FMN 200 uM,263 nM
same,apparent KD of K4 kissing-loop reporter,input ligand: arginine 13.2 mM,384 nM
same,apparent KD of K4 kissing-loop reporter,input ligand: none,697 nM
same,apparent KD of K4 kissing-loop reporter,[1],835 nM
same,apparent KD of K4 kissing-loop reporter,[2],431 nM
UGACAUUGCUCAGAUACCAGACACGAGGAUCACCCGUGUGCCAAAACGUACUAAAUAAGUGUCCCUUGGCAGCUGAGCAAUGUCU [TheoBX 13],apparent KD of K4 kissing-loop reporter,input ligand: FMN 200 uM,78.1 nM
same,apparent KD of K4 kissing-loop reporter,input ligand: arginine 13.2 mM,19.8 nM
same,apparent KD of K4 kissing-loop reporter,input ligand: none,30.1 nM
same,apparent KD of K4 kissing-loop reporter,[1],148 nM
same,apparent KD of K4 kissing-loop reporter,[2],47.8 nM
AGUGAACGAGCGGCCGCCACUAAAUGAGUGAUGUUCGUGAGUAGUGCUGUUGUCAUGAUUGUUUUUAGGACCGGGUUCGAUGUUG [popplmullin],apparent KD of K4 kissing-loop reporter,input ligand: FMN 200 uM,719 nM
same,apparent KD of K4 kissing-loop reporter,input ligand: arginine 13.2 mM,735 nM
same,apparent KD of K4 kissing-loop reporter,input ligand: none,1270 nM
same,apparent KD of K4 kissing-loop reporter,[1],963 nM
same,apparent KD of K4 kissing-loop reporter,[2],719 nM
AAAUAAAUCACGGCCGCCACUGUAAGUUGAAGUGAUGUUUCAAGAUAUAGUAUGUUUUAUAAUAUCAGGACCGGGUGAUUUUUAA [JR_SSTryptoB_Sub021],apparent KD of K4 kissing-loop reporter,input ligand: FMN 200 uM,147 nM
same,apparent KD of K4 kissing-loop reporter,input ligand: arginine 13.2 mM,103 nM
same,apparent KD of K4 kissing-loop reporter,input ligand: none,133 nM
same,apparent KD of K4 kissing-loop reporter,[1],115 nM
same,apparent KD of K4 kissing-loop reporter,[2],119 nM
UGAUUUAACUGAAGGAGCGGCAAUUGAGAAGGAAAUAUAGUGAUGUUAUAUAAGAGAGAGAGCCAGGUAGGUCGCAGAGGGAGGA [ExArgB.G],apparent KD of K4 kissing-loop reporter,input ligand: FMN 200 uM,185 nM
same,apparent KD of K4 kissing-loop reporter,input ligand: arginine 13.2 mM,131 nM
same,apparent KD of K4 kissing-loop reporter,input ligand: none,152 nM
same,apparent KD of K4 kissing-loop reporter,[1],198 nM
same,apparent KD of K4 kissing-loop reporter,[2],118 nM
ACGUGCACGAGUGAUGUUUGAAAAUCUGAAGGAGCGGGCGAAAGCCCAGGUAGGUCGCAGAAUAGCACGAGCCACGAAAGUGGCA,apparent KD of K4 kissing-loop reporter,input ligand: FMN 200 uM,202 nM
same,apparent KD of K4 kissing-loop reporter,input ligand: arginine 13.2 mM,272 nM
same,apparent KD of K4 kissing-loop reporter,input ligand: none,319 nM
same,apparent KD of K4 kissing-loop reporter,[1],142 nM
same,apparent KD of K4 kissing-loop reporter,[2],191 nM
AGAACUGUCUUGGAUACCAGUGAUGUUGGUAUCGAUGUGUGAGUGCAAAGCGUCCCAGAGUGCCCUUGGCAGCUAAGACUGUUCA [#16 K4 Theophylline B Exclusion],apparent KD of K4 kissing-loop reporter,input ligand: FMN 200 uM,277 nM
same,apparent KD of K4 kissing-loop reporter,input ligand: arginine 13.2 mM,230 nM
same,apparent KD of K4 kissing-loop reporter,input ligand: none,269 nM
same,apparent KD of K4 kissing-loop reporter,[1],261 nM
same,apparent KD of K4 kissing-loop reporter,[2],259 nM
GUGCAGUGAUGUUGCACGAGGAAAGACGAUACCAGCCGUAAAUAAGGCCCUUGGCAGCGUAAGCUAGCAUAAAGUAUGCUAGUCC [Onarve],apparent KD of K4 kissing-loop reporter,input ligand: FMN 200 uM,108 nM
same,apparent KD of K4 kissing-loop reporter,input ligand: arginine 13.2 mM,102 nM
same,apparent KD of K4 kissing-loop reporter,input ligand: none,103 nM
same,apparent KD of K4 kissing-loop reporter,[1],77.1 nM
same,apparent KD of K4 kissing-loop reporter,[2],85.2 nM
UGGAGUUGACGAAAAGUCAACUCCUGAGAUCGAGGACCGGUACGGCCGCCACUCGAGCUAACUGCGAGUGAUGUUCGAAAAUAAA [#OpenEnded 1 - Direct theophylline transfer],apparent KD of K4 kissing-loop reporter,input ligand: FMN 200 uM,191 nM
same,apparent KD of K4 kissing-loop reporter,input ligand: arginine 13.2 mM,313 nM
same,apparent KD of K4 kissing-loop reporter,input ligand: none,235 nM
same,apparent KD of K4 kissing-loop reporter,[1],393 nM
same,apparent KD of K4 kissing-loop reporter,[2],97.1 nM
UACAUUUUAUUAACACUAAAUACAACUGAAGGAGCGACAAUAAAGUCAGGUAGGUCGCAGAAUAAAUGAGUGAUGUUCAUUAUUG [JR_ExcArginiA_Sub016],apparent KD of K4 kissing-loop reporter,input ligand: FMN 200 uM,60.2 nM
same,apparent KD of K4 kissing-loop reporter,input ligand: arginine 13.2 mM,101 nM
same,apparent KD of K4 kissing-loop reporter,input ligand: none,63.8 nM
same,apparent KD of K4 kissing-loop reporter,[1],92.8 nM
same,apparent KD of K4 kissing-loop reporter,[2],51.2 nM
CUAAGGGAAGCAGGAUAUCGGUAUUAGUGUGUUAAAUAAACACUCGGGUAGUGAUGUUGCCCGUGGCGAGAAGGGCUACCAUUGG [Laace],apparent KD of K4 kissing-loop reporter,input ligand: FMN 200 uM,33.6 nM
same,apparent KD of K4 kissing-loop reporter,input ligand: arginine 13.2 mM,44.8 nM
same,apparent KD of K4 kissing-loop reporter,input ligand: none,48.7 nM
same,apparent KD of K4 kissing-loop reporter,[1],41.4 nM
same,apparent KD of K4 kissing-loop reporter,[2],47.3 nM
